According to publication doi:10.1101/2020.10.14.338756:

What was measured:
[1] = target: BPTI_K15R, displayed on yeast (bovine)
[2] = target: BPTI_K15A, displayed on yeast (bovine)
[3] = target: BPTI_A16S, displayed on yeast (bovine)

Q: Which results are given for Bovine trypsin (enzyme)?
A: ΔΔG bind against BPTIWT [1]: -1.4 kcal/mol; ΔΔG bind against BPTIWT [2]: 11.1 kcal/mol; ΔΔG bind against BPTIWT [3]: 4.5 kcal/mol
